Experimental data as given in patent US20200255508A1 (AbbVie / Abbott, published 2020).
Changes are numbered by the printed parent chain. Like-named read-outs stand apart in the source and are kept apart here. Blank lines part the entries; values can stand above or below the binder they belong to.

Tests used:
[1] = biological target: T1, human DLL4 extracellular domain (human, UniProt Q9NR61 27-529); experiment: Biacore SPR;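 on koff: surface plasmon resonance on a Biacore instrument, antibodies captured on immobilized anti-human Fc, purified recombinant DLL4 extracellular domain injected as analyte, binding followed over time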
T1 construct: extracellular domain; coated on plates in the sVEGFR1 assay; also called huDLL4 ECD; Human DLL4 ECD
Protocol: (§1) Binding of DLL4 antibodies to a purified recombinant DLL4 extracellular domain is determined by surface plasmon resonance-based measurements with a Biacore® instrument (either a Biacore 2000, Biacore 3000, or Biacore T100, GE Healthcare, Piscataway, N.J. US) using running buffer HBS-EPB (10 mM HEPES [pH 7.4], 150 mM NaCl, 3 mM EDTA, 0.1 mg/ml BSA and 0.005% surfactant P20) at 25° C. For example, approximately 9000 RU of goat anti-human Fc specific polyclonal antibody (Thermo Fisher Scientific Inc., Rockford, Ill., US) diluted in 10 mM sodium acetate (pH 4.5) is directly immobilized across a CM5 research grade biosensor chip using a standard amine coupling kit according to manufacturer's instructions and procedures at 25 μg/ml. Unreacted moieties on the biosensor surface are blocked with ethanolamine. For kinetic analysis, rate equations derived from the 1:1 Langmuir binding model are fitted simultaneously to multiple antigen injections (using global fit analysis) with the use of Scrubber 2 (BioLogic Software). […] The equilibrium dissociation constant KD (M) of the reaction between antibodies and the target antigen is then calculated from the kinetic rate constants by the following formula: KD=Koff/Kₒₙ. Binding is recorded as a function of time and kinetic rate constants are calculated. In this assay, on-rates as fast as 10⁶ M⁻¹s⁻¹ and off-rates as slow as 10⁻⁶ s⁻¹ can be measured.

[2] = biological target: T2, mouse DLL4 extracellular domain (mouse, UniProt Q9JI71 27-532); experiment: Biacore SPR;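 on koff: surface plasmon resonance on a Biacore instrument, antibodies captured on immobilized anti-human Fc, purified recombinant DLL4 extracellular domain injected as analyte, binding followed over time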
T2 construct: extracellular domain; also called muDLL4 ECD; Mouse DLL4 ECD
T2 sequence (Q9JI71 27-532): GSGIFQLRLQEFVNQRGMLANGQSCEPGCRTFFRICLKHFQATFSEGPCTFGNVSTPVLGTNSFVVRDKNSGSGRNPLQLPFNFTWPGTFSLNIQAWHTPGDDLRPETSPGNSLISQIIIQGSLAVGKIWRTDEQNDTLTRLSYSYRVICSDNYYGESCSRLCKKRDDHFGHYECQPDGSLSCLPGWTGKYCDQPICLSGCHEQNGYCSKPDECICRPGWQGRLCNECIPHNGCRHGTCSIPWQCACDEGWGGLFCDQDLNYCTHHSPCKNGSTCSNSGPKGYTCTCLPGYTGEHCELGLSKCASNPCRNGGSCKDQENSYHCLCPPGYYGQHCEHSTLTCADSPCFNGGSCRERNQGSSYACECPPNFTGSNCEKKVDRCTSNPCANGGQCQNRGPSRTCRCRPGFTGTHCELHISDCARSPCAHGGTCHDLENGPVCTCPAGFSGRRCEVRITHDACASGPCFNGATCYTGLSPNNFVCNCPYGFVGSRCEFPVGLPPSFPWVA
Protocol: as §1

[3] = biological target: T3, human DLL4 on the cell surface (human, UniProt Q9NR61 27-685); experiment: FACS on DLL4 cells
T3 construct: whole, on cells; also called HEK293-hDLL4; hDLL4-293G

[4] = biological target: T4, mouse DLL4 on the cell surface (mouse, UniProt Q9JI71 27-686); experiment: FACS on DLL4 cells
T4 construct: whole, on cells; also called HEK293-mDLL4; mDLL4-293G
T4 sequence (Q9JI71 27-686): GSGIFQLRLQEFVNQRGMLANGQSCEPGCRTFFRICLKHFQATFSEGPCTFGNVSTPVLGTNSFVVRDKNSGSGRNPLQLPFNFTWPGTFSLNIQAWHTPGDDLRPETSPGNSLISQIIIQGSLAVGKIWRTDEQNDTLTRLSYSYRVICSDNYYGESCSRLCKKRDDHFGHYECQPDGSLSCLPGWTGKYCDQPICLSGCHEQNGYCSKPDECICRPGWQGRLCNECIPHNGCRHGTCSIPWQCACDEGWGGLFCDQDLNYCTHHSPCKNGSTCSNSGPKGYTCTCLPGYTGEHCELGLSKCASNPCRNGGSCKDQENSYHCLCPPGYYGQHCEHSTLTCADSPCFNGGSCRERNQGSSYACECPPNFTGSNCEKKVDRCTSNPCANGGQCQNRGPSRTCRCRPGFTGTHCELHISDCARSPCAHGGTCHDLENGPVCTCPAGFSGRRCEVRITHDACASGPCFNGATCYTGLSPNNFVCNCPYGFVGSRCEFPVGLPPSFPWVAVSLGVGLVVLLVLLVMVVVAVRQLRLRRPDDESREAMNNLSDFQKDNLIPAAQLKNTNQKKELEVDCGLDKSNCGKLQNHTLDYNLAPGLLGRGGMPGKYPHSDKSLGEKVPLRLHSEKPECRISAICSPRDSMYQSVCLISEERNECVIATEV

[5] = biological target: T3, human DLL4 on the cell surface; experiment: cell-based or functional assay
[6] = biological target: T3, human DLL4 on the cell surface; experiment: competition FACS, competitor huNotch-1
[7] = biological target: T4, mouse DLL4 on the cell surface; experiment: competition FACS, competitor huNotch-1
[8] = biological target: T1, human DLL4 extracellular domain; experiment: Biacore SPR; remark: listed apart in the source;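 on koff: surface plasmon resonance on a Biacore instrument, antibodies captured on immobilized anti-human Fc, purified recombinant DLL4 extracellular domain injected as analyte, binding followed over time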
Protocol: (§2) The BIACORE® surface plasmon resonance assay (Biacore, Inc., Piscataway, N.J., US) determines the affinity of antibodies with kinetic measurements of on-rate and off-rate constants. Binding of DLL4 antibodies to a purified recombinant DLL4 extracellular domain is determined by surface plasmon resonance-based measurements with a Biacore® instrument (either a Biacore 2000, Biacore 3000, or Biacore T100, GE Healthcare, Piscataway, N.J. US) using running buffer HBS-EPB (10 mM HEPES [pH 7.4], 150 mM NaCl, 3 mM EDTA, 0.1 mg/ml BSA and 0.005% surfactant P20) at 25° C. For example, approximately 9000 RU of goat anti-human Fc specific polyclonal antibody (Thermo Fisher Scientific Inc., Rockford, Ill., US) diluted in 10 mM sodium acetate (pH 4.5) is directly immobilized across a CM5 research grade biosensor chip using a standard amine coupling kit according to manufacturer's instructions and procedures at 25 μg/ml. Unreacted moieties on the biosensor surface are blocked with ethanolamine. For kinetic analysis, rate equations derived from the 1:1 Langmuir binding model are fitted simultaneously to multiple antigen injections (using global fit analysis) with the use of Scrubber 2 (BioLogic Software). […] The equilibrium dissociation constant KD (M) of the reaction between antibodies and the target antigen is then calculated from the kinetic rate constants by the following formula: KD=Koff/Kₒₙ. Binding is recorded as a function of time and kinetic rate constants are calculated. In this assay, on-rates as fast as 10⁶ M⁻¹s⁻¹ and off-rates as slow as 10⁻⁶ s⁻¹ can be measured.

[9] = biological target: T2, mouse DLL4 extracellular domain; experiment: Biacore SPR; remark: listed apart in the source;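 on koff: surface plasmon resonance on a Biacore instrument, antibodies captured on immobilized anti-human Fc, purified recombinant DLL4 extracellular domain injected as analyte, binding followed over time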
Protocol: as §2

[10] = biological target: T5, human DLL4-his (human, UniProt Q9NR61 27-529); experiment: ELISA on DLL4-his
T5 construct: extracellular domain
Protocol: After the final wash, plates were incubated with 100 μl/well ELISA substrate (Sigma # T8665). The reaction was stopped after 8 minutes at 25° C. with 100 μl/well 1N HCl and the absorbance was read at 450 nm. Data were analyzed using Graphpad Prism software and EC50 values were reported.

[11] = biological target: T6, mouse DLL4-his (mouse, UniProt Q9JI71 27-532); experiment: ELISA on DLL4-his
T6 construct: extracellular domain; not shown: his tag
T6 sequence (Q9JI71 27-532): as the sequence (Q9JI71 27-532) above

[12] = biological target: T3, human DLL4 on the cell surface; experiment: FACS on DLL4 cells; remark: listed apart in the source
Protocol: (§3) Stable cell lines overexpressing cell-surface DLL4 were harvested from tissue culture flasks, washed four times and resuspended in phosphate buffered saline (PBS) containing 1% bovine serum albumin and 1 mM CaCl₂ (FACS buffer), 1.5×10³ cells were incubated with antibodies at various concentrations in FACS buffer for 60 minutes on ice. Cells were washed twice and 50 μL of R-phycoerythrin-conjugated anti-rat IgG. […] Following an incubation on ice (4° C., 60 minutes), cells were washed three times and resuspended in FACS buffer. Fluorescence was measured using a Becton Dickinson FACSCalibur-HTS (Becton Dickinson, San Jose. Calif., US). Data were analyzed using Graphpad Prism software and EC₅₀ values were reported as the concentration of antibody to achieve 50% of maximal DLL4 antibodies binding to DLL4 expressing cells.

[13] = biological target: T4, mouse DLL4 on the cell surface; experiment: FACS on DLL4 cells; remark: listed apart in the source
Protocol: as §3

[14] = biological target: T3, human DLL4 on the cell surface; experiment: competition FACS, competitor huNotch-1; remark: listed apart in the source
Protocol: (§4) Notch blocking assay: Briefly, stable cell lines overexpressing cell-surface DLL4 were harvested from tissue culture flasks and re-suspended in phosphate buffered saline (PBS) containing 1% bovine serum albumin and 1 mM CaCl₂ (FACS buffer). HEK293-hDLL4 or HEK293-mDLL4 cells were dispensed into 96-well plate (v-bottom) at 1.5×10⁵ cells/well in FACS buffer. […] After washing the cells two times with FACS buffer, 50 μL of R-phycoerythrin-conjugated streptavidin (1:150 dilution in FACS buffer) (Jackson ImmunoResearch, West Grove, Pa., US, catalog no. 016-110-084) were added. Following an incubation on ice (4° C., 60 minutes), cells were washed three times and resuspended in FACS buffer. Fluorescence was measured using a Becton Dickinson FACSCalibur-HTS (Becton Dickinson, San Jose. Calif.).

[15] = biological target: T4, mouse DLL4 on the cell surface; experiment: competition FACS, competitor huNotch-1; remark: listed apart in the source
Protocol: as §4

[16] = biological target: T1, human DLL4 extracellular domain; experiment: competition ELISA, competitor huNotch-1
Protocol: (§5) Plates were then washed 3 times with wash buffer (PBS, 0.05% Tween-20) and blocked with 200 μl/well blocking buffer (D-PBS, 1% BSA, 1 mM CaCl₂, 0.05% Tween-20) for 1 hour at 25° C. […] Assay plates were washed after blocking, and incubated with DLL4/antibody mixtures (100 μl/well, 1 hour at 25° C. with shaking). […] After a final wash, plates were developed using 100 μl/well substrate (TMB Sigma # T8665), and the reaction was stopped after an 8-minute incubation at 25° C. (for muDLL4 ELISA) and after 20 minute incubation at 25° C. (for huDLL4 ELISA) using 100 μl/well 1N HCl, and the absorbance was read at 450 nm.

[17] = biological target: T2, mouse DLL4 extracellular domain; experiment: competition ELISA, competitor huNotch-1
Protocol: as §5

Kd [1]: 0.27 nM
koff [1]: 4.12e-05 s⁻¹
kon [1]: 152000 M⁻¹ s⁻¹
Kd [2]: 2.3 nM
koff [2]: 0.000221 s⁻¹
kon [2]: 95300 M⁻¹ s⁻¹
EC50 [3]: 4.46 nM
EC50 [4]: 1.94 nM
Inhibition of Notch activation via huDLL4 cells, coculture (IC50, nM) [5]: 0.41 nM
IC50 [6]: 4 nM
IC50 [7]: 0.33 nM
B1: E9.7E (antibody, V domains shown)
VH: EVQLQESGPGLVKPSETLSLTCTVSGGSISSSSYYWGWIRQPPGKGLEWIGDIYYAGSTYYNPSLKDRVTISVDTSKNQFSLKLSSVTAADTAVYYCAREDMILGGGADNWGQGTLVTVSS
VL: SYELTQPPSVSVSPGQTASITCSGDRLGDKYVSWYQQKPGQSPVLVIYEDSERPSGIPERFSGSNSGDTATLTISGTQAMDEADYYCQAWDSEAGVFGSGTKVT

Kd [1]: 0.38 nM
koff [1]: 4.59e-05 s⁻¹
kon [1]: 120000 M⁻¹ s⁻¹
Kd [2]: 1.6 nM
koff [2]: 0.000121 s⁻¹
kon [2]: 73700 M⁻¹ s⁻¹
EC50 [3]: 3.15 nM
EC50 [4]: 0.88 nM
Inhibition of Notch activation via huDLL4 cells, coculture (IC50, nM) [5]: 0.85 nM
IC50 [6]: 3.03 nM
IC50 [7]: 0.26 nM
B2: E9.10C (antibody, V domains shown)
VH: B1 VH with S32G, A56T, D67S, E100Q, D101A, M102V, I103M, L104Y, A108S
VL: B1 VL with R26S, A94T

Kd [8]: 1.57 nM
Kd [9]: 12.8 nM
EC50 [10]: 0.16 nM
EC50 [11]: 0.19 nM
Kd [12]: 7.81 nM
Kd [13]: 2.9 nM
IC50 [14]: 6.38 nM
IC50 [15]: 1.76 nM
IC50 [16]: 2.6 nM
IC50 [17]: 2.4 nM
B3: E9-SE5 (antibody, V domains shown)
VH: B1 VH with A56T, D67S, M102V, G105R, A108S, N110Y
VL: EYVLTQSPDFQSVTPKEKVTITCSGQRLGDKYASWYQQKPDQSPKLVIYEDSKRPSGVPSRFSGSNSGDDATLTINSLEAEDAATYYCQAWDRDTGVFGQGTKVEIKR
notes: full-length human IgG1

Kd [8]: 2 nM
Kd [9]: 13 nM
EC50 [10]: 0.18 nM
EC50 [11]: 0.19 nM
Kd [12]: 2.67 nM
Kd [13]: 2.32 nM
IC50 [14]: 9.25 nM
IC50 [15]: 2.3 nM
IC50 [16]: 2.5 nM
IC50 [17]: 2.6 nM
B4: E9-SE8 (antibody, V domains shown)
VH: EVQLQESGPGLVKPGETLSLTCTVSGGSISSSSYYWGWIRQAPGKGLEWIGDIYYTGSTYYNPSLKSRVTISVDTSKNQFYLKLSSVRAEDTAVYYCAREDVILRGGSDYWGQGTLVTVSS
VL: B3 VL
notes: full-length human IgG1

EC50 [3]: 0.22 nM
EC50 [4]: 0.47 nM
Inhibition of Notch activation via huDLL4 cells, coculture (IC50, nM) [5]: 2.4 nM
IC50 [6]: 1.82 nM
IC50 [7]: 0.21 nM
B5: E9.71(L) (antibody, human IgG1, V domains shown)
VH: B1 VH with A56T, D67S, E100Q, D101A, M102L, I103A, A108S, N110K
VL: SYELTQPPSVSVSPGQTASITCSGQRLGDKYASWYQQKPGQSPVLVIYEDSKRPSGIPERFSGSNSGDTATLTISGTQPMDEADYYCQAWDRDTGVFGGGTKLTVLG
notes: Methionine in CDR-H3 of E9-71 changed to leucine

Kd [8]: 2.38 nM
Kd [9]: 10.5 nM
EC50 [10]: 0.17 nM
EC50 [11]: 0.2 nM
Kd [13]: 1.15 nM
IC50 [14]: 5.82 nM
IC50 [15]: 1.71 nM
IC50 [16]: 2.7 nM
IC50 [17]: 2.9 nM
B6: E9-SE4 (antibody, V domains shown)
VH: B4 VH with G15S, A42P, Y81S, R88T, E90A
VL: B5 VL with S1L, E3V, P79T, Y86L, L103V
notes: full-length human IgG1

Kd [8]: 2.43 nM
Kd [9]: 15.1 nM
EC50 [10]: 0.18 nM
EC50 [11]: 0.2 nM
Kd [12]: 5.2 nM
Kd [13]: 0.87 nM
IC50 [14]: 5.61 nM
IC50 [15]: 1.23 nM
IC50 [16]: 2.6 nM
IC50 [17]: 2.2 nM
B7: E9-SE2 (antibody, V domains shown)
VH: EVQLVESGGGLVQPGGSLRLSCAVSGGSISSSSYYWGWIRQAPGKGLEWIGDIYYTGSTYYNPSLKSRVTISVDTSKNSFYLQMNSLRAEDTAVYYCAREDVILRGGSDYWGQGTLVTVSS
VL: B5 VL with G99Y, K102R, L103V
notes: full-length human IgG1
